Test [1] deals with T1, porcine TSH receptor (immobilized, TSH Receptor Autoantibody 2nd Generation ELISA kit, RSR Limited) (porcine, UniProt Q8SPP9 22-764, limits assumed).
T1 construct: Bought kit plates; the construct is not described
Description: competition ELISA; inhibition of biotinylated rhTSH binding to immobilized porcine TSH receptor. On the procedure: (§1) Purified PEGylated conjugates were analyzed by in vitro porcine TSH receptor binding assay using the TSH Receptor Autoantibody 2nd Generation ELISA kit from RSR Limited (Kronus, Star, Id.). Instead of using the biotinylated human monoclonal autoantibody to the TSH receptor provided by the kit, we biotinylated Thyrogen® (rhTSH) to use for competitive inhibition of binding to TSH receptor. Binding of biotinylated rhTSH to immobilized porcine TSH receptor was inhibited by either rhTSH control or PEGylated rhTSH conjugates and IC₅₀ values were measured.
(§2) Thyrogen® was biotinylated with 1.7 to 1.8 biotins per protein using the ChromaLink™ Biotin Labeling Reagent according to the manufacturer's protocol (QED Bioscience Inc., San Diego, Calif.) and buffer exchanged into 50 mM sodium phosphate, 150 mM sodium chloride pH 7.0 with a Zeba™ Desalt Spin Column (Thermo Scientific, Rockford, Ill.). In vitro measurement of receptor binding was performed by competition of biotinylated Thyrogen® and PEG-rhTSH conjugate for binding to porcine TSH receptor immobilized onto 96-well plates supplied with the TSH Receptor Autoantibody 2nd Generation ELISA kit from RSR Limited (Kronus, Star, Id.). PEG-rhTSH conjugates were serially diluted 1:5 from 16 μM to 41 pM in assay buffer (100 mM HEPES pH 7.5, 20 mM EDTA, 1% BSA, 0.5% Triton X-100) and mixed 1:1 with biotinylated Thyrogen® diluted 1000-fold in assay buffer. The mixture was added to each receptor-coated well and incubated at 25° C. for 25 minutes. Unbound rhTSH was washed away and streptavidin peroxidase was added at 25° C. for 20 minutes according to the RSR Limited ELISA protocol to determine the amount of biotinylated Thyrogen® bound to the plate. The plate was then washed three times to remove excess unbound streptavidin peroxidase and then tetramethylbenzidine (TMB) was added to each well and incubated in the dark at 25° C. for 30 minutes. The reaction which was quenched with 0.5M sulfuric acid stop buffer and the absorbance of each well was read at 450 nm using a SpectraMax® 340pc plate reader (Molecular Devices, Sunnyvale, Calif.). The data was fit using a sigmoidal dose response equation with GraphPad Prism software to generate IC₅₀ values.

Test [2] concerns the target T1, porcine TSH receptor (immobilized, TSH …). The description is as above. The protocol: as §1, §2
The source holds these as a separate data set.

Test [3] shares this target. Description: in vitro TSH receptor binding assay (competition ELISA).

Like-named read-outs stand apart in the source and are kept apart here.

T1 sequence (Q8SPP9 22-764 limits assumed): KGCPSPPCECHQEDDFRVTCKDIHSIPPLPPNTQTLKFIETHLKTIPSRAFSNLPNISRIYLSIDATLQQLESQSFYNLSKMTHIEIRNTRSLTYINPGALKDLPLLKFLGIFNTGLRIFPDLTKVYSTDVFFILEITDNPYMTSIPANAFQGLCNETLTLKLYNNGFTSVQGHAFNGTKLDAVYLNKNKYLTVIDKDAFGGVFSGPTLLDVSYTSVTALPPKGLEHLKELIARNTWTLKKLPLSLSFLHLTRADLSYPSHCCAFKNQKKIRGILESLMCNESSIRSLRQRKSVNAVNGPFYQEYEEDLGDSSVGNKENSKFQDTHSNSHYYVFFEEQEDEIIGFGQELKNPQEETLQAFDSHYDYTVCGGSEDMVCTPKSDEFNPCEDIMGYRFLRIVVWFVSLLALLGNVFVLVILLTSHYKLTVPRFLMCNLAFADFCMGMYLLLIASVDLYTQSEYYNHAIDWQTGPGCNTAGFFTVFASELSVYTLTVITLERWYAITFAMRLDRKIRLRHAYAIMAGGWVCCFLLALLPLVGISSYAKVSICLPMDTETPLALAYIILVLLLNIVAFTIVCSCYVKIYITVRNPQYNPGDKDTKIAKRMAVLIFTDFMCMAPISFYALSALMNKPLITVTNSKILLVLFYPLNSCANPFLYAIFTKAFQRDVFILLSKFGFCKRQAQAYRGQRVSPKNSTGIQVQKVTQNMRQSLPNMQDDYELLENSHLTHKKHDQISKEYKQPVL

B1: G22C rhTSH (TSH G22C (alpha)) (ligand)
alpha: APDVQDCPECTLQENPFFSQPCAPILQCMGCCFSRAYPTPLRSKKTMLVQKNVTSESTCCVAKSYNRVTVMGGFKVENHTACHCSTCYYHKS
beta: FCIPTEYTMHIERRECAYCLTINTTICAGYCMTRDINGKLFLPKYALSQDVCTYRDFIYRTVEIPGCPLHVAPYFSYPVALSCKCGKCNTDYSDCIHEAIKTNYCTKPQKSYLVGFSV
modifications: Alpha Cys22 may carry a cap after expression; whether the assayed sample was capped is not stated. N-glycans at alpha Asn52, Asn78 and beta Asn23.
notes: Cysteine mutant without PEG, produced in CHO cells; also called alphaG22C TSH
B1: in test [1], the half-inhibitory concentration (IC50) amounted to 41.6 nM and the “fold change (IC50 against rhTSH)” value was 1.5 fold.

B2: 40 kD 4-arm PEG G22C (ligand)
alpha: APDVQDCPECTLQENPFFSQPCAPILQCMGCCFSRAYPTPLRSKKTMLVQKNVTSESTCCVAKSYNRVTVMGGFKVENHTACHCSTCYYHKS
beta: FCIPTEYTMHIERRECAYCLTINTTICAGYCMTRDINGKLFLPKYALSQDVCTYRDFIYRTVEIPGCPLHVAPYFSYPVALSCKCGKCNTDYSDCIHEAIKTNYCTKPQKSYLVGFSV
modifications: Chain 1 (alpha) pos 22: Cys carrying a 40 kD 4-arm (branched) cysteine-reactive PEG, written C. N-glycans at alpha Asn52, Asn78 and beta Asn23.
Turning to B2, in test [1], the 50% inhibitory concentration (IC50) worked out at 743 nM and the “fold change (IC50 against rhTSH)” value amounted to 26.5 fold.

B3: 40 kD 2-arm PEG G22C (ligand)
alpha: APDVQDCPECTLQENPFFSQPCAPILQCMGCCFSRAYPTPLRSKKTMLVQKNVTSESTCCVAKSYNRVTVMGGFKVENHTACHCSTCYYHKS
beta: FCIPTEYTMHIERRECAYCLTINTTICAGYCMTRDINGKLFLPKYALSQDVCTYRDFIYRTVEIPGCPLHVAPYFSYPVALSCKCGKCNTDYSDCIHEAIKTNYCTKPQKSYLVGFSV
modifications: Chain 1 (alpha) pos 22: Cys carrying a 40 kD 2-arm (branched) cysteine-reactive PEG, written C. N-glycans at alpha Asn52, Asn78 and beta Asn23.
Regarding B3, in test [1], the half-maximal inhibitory concentration (IC50) stood at 417 nM and the “fold change (IC50 against rhTSH)” value was 14.9 fold.

B4: 40 kD linear G22C (PEGylated Cys-mutant TSH) (ligand)
alpha: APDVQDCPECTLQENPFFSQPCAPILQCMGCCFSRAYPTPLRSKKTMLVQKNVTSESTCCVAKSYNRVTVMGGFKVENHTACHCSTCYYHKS
beta: FCIPTEYTMHIERRECAYCLTINTTICAGYCMTRDINGKLFLPKYALSQDVCTYRDFIYRTVEIPGCPLHVAPYFSYPVALSCKCGKCNTDYSDCIHEAIKTNYCTKPQKSYLVGFSV
modifications: Chain 1 (alpha) pos 22: Cys carrying a 40 kD linear cysteine-reactive PEG, written C. N-glycans at alpha Asn52, Asn78 and beta Asn23.
notes: also called 40 KD G22C
Turning to B4, in test [1], the IC50 was 248 nM and the “fold change (IC50 against rhTSH)” value was determined as 8.9 fold.

B5: N-terminal mono-PEGylated rhTSH with 40 kD PEG (ligand)
alpha: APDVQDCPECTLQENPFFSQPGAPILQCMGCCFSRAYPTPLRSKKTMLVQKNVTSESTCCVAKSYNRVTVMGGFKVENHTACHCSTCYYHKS
beta: FCIPTEYTMHIERRECAYCLTINTTICAGYCMTRDINGKLFLPKYALSQDVCTYRDFIYRTVEIPGCPLHVAPYFSYPVALSCKCGKCNTDYSDCIHEAIKTNYCTKPQKSYLVGFSV
modifications: One 40 kD aldehyde PEG on an N-terminal amine (alpha Ala1 or beta Phe1; which subunit is not stated). N-glycans at alpha Asn52, Asn78 and beta Asn23. None is carried by the letters.
notes: also called 40 kD N-terminal
As to B5, in test [2], the half-maximal inhibitory concentration (IC50) is 397 nM and the “fold change (IC50 against rhTSH)” value worked out at 10.8 fold. For the same molecule, in test [1], the IC50 stood at 319 nM and the “fold change (IC50 against rhTSH)” value is 11.4 fold. Moreover, the “fold decrease of receptor binding affinity against rhTSH control” value in test [3] was 11.1 fold.

B6: Recombinant human TSH (rhTSH), THYROGEN Thyroid Stimulating Hormone (ligand)
alpha: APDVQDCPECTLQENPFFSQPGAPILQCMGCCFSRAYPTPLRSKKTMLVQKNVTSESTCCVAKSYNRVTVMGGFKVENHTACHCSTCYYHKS
beta: FCIPTEYTMHIERRECAYCLTINTTICAGYCMTRDINGKLFLPKYALSQDVCTYRDFIYRTVEIPGCPLHVAPYFSYPVALSCKCGKCNTDYSDCIHEAIKTNYCTKPQKSYLVGFSV
modifications: N-linked glycans at alpha Asn52 and Asn78 and beta Asn23; not carried by the letters.
notes: also called TSH control; control TSH; copies: 1 + 1
For the molecule B6, in test [2], the IC50 was found to be 36.7 nM and the “fold change (IC50 against rhTSH)” value was 1 fold. In test [1], the IC50 came out at 28 nM and the “fold change (IC50 against rhTSH)” value is 1 fold.

Source of the values: US20170065725A1 (published 2017).
